The target in this assay is T1, Ebola VP40 (1-326) (Ebola virus (EBOV), UniProt Q05128 1-326).
T1 sequence: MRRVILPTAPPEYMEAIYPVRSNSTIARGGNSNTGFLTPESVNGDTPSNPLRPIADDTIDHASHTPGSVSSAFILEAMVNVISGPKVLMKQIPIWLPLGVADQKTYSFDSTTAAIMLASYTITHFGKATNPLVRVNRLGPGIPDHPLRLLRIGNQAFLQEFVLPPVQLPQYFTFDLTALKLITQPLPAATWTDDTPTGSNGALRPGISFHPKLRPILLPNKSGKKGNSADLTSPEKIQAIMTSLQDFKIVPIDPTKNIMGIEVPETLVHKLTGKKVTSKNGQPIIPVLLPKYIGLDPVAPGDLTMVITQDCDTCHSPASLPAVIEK
The assay is described as follows: co-immunoprecipitation with anti-Myc antibody from transfected 293T cells.

B1: Myc tagged TSG101 truncated at position 140 (other)
chain: MAVSESQLKKMVSKYKYRDLTVRETVNVITLYKDLKPVLDSYVFNDGSSRELMNLTGTIPVPYRGNTYNIPICLWLLDTYPYNPPICFVKPTSSMTIKTGKHVDANGKIYLPYLHEWKHPQSDLLGLIQVMIVVFGDEPP
As to B1, the binding result was “no binding”.

The record behind these values is patent US20040223972A1 (FUNCTIONAL GENETICS, published 2004).
